Laboratory results published in the DeepSol protein solubility set.

assay: soluble on expression in E. coli; label from the status in PepcDB or PDB records

**Q.** With “VQVGNCLQVMWLADRHSDPELYTAAKHCAKTHLAQLQNTEEFLHLPHRLLTDIISDGVPCSQNPTEAIEAWINFNKEEREAFAESLRTSLKEIGENVH” as the sequence, how does the “soluble on expression in E. coli” value read?
**A.** soluble

**Q.** With “MSLKISAIELYEYDLTYSHGTYVMSKGRSAKQQPSNLVRVITDSGIEGWGEAATLSGNYLPVFAGSTRAALRELAPLLIGQDPRGSTHLQRLMSSLLMGQANAKNAFDVACWDIFGKSVDLPISALIGGVLSTELPIFEAVPLSSTEESLDYIGKRSAQGIMRYQIKIGDDPVKDAARARAIVKAFPDIFFFVDANAGYTLLEAQIAMRALDDTNLYVEQPCRDIADCAMLRKISGLPIVLDEAVLTHADLYRAKYEVSAAAVNIKLGRLGGITPAVAMRNAAQDLGMHFCIEDVWGGDVTAAAVSHVAASAFPENLMHTSFFNDWTNEHVAGYQPRSRNGRGAAPTGPGLGITVDRSLLGAPVASFSEGHHHHHH” as the sequence, how does the “soluble on expression in E. coli” value read?
**A.** soluble

**Q.** With “MGSDKIHHHHHHMDEQIKKAIEAHALAEYPRECCGLVVKTESGEIYVRCRNLAAVPTDQFALASEDYAAAEDMGEIVALVHSHPGASAQPSEADRAMCERSGIEKWVIVSLGVQADGSIGIDDWCEFEPAGYVTRLIGRQFVHGVHDCYAIVRDWYLAERGVLLPDFEREDDWWNDGRSNLYLNHYQDAGFLDVGRGVTLQVGDVLLMQIRSKNDVPNHAGVYLGDGQFLHHMHGRLSARAVWGGMWADCCTTVLRYAGGRK” as the sequence, how does the “soluble on expression in E. coli” value read?
**A.** not soluble

**Q.** Which “soluble on expression in E. coli” value does the source give for “MGSDKIHHHHHHMSDTHIGAKSLTIEEREQDYYDTFQEAVEIAIDEKVDFIIHSGDLFDTWIPGNRSMKVFRDAMMKLNDRQIPVFYVFGDHDRPRRNSESAAGIFDFLGLHILGRDEFAGIEREFSGMKVFIGGISNMKGYLRNQLKEEYKKAESASTGYKNSILISHQALDPIFIPEQCEAKVNDLPMNYSYIAMGHLHDFVEREIGPLLSYPGSTELKSDREINGLLKMGKGINVIDLDNGVASLHRVKLKKVRYQFKVESDPENYLEEIKSILDKYANAIGEKKPIVNLIINGQISMEEVYEDLKKINGAIFNRPQILKIVDMPNVPSGSSELREYFQAFLKDQKLTDLAMKVFQHTADGDKEAIIREAAGEAIDN” here?
**A.** not soluble

**Q.** With “STGKAKPKKHTAKELQAKADAALTNRGGGKAGLADRTGKEKGGHAKYECPHCKITVPDLKTMQIHHESKHPKLTYEEPRNLHEALAAPAESSKPKPGIRGSLKK” as the sequence, how does the “soluble on expression in E. coli” value read?
**A.** soluble

**Q.** For “CQDYIPVKDQKVVDLMSRDVVAIDASDRLVDVVEFLCIDKEQLYPTSSMGIATRLTSLSLEERAKSMKVSKPQVLPVLENGQMVGVVTRQEVLKALRPVFGERLNLVEDKALETA”, which “soluble on expression in E. coli” value is on record?
**A.** not soluble

**Q.** For “MNVYFLGGGNMAAAVAGGLVKQGGYRIYIANRGAEKRERLEKELGVETSATLPELHSDDVLILAVKPQDMEAACKNIRTNGALVLSVAAGLSVGTLSRYLGGTRRIVRVMPNTPGKIGLGVSGMYAEAEVSETDRRIADRIMKSVGLTVWLDDEEKMHGITGISGSGPAYVFYLLDALQNAAIRQGFDMAEARALSLATFKGAVALAEQTGEDFEKLQKNVTSKGGTTHEAVEAFRRHRVAEAISEGVCACVRRSQEMERQYQ”, which “soluble on expression in E. coli” value is on record?
**A.** soluble

**Q.** With “NGESYNFALNSGYTKLSDNAEVKIAVDKIADLVSNMTVHLMENTEKGDIRIRDELSRKIDINPYSLMTRKTWIYNIVSNLLLYGDGNAIVLPEIKNGLISELKPLDPSLVDFDVRDDSYKIHYKNKTYNPDEVVHFAINPDSEYPFIGTGYRVALKSLVDNLNQATATKKAFMSSKFMPNLIVKVDANAAELSSEKGKNKIEDMYLQRTEEGKPWIIPADLIEIEQVKPLSLNDIAINEAVNIDKKTVAGLLGVPAFFVGVGEFDKNEFNNFINTRIMSIAMIISQTLTRDLLISPTRFFKLNPRSLYSYDITELVAAGGQMVDRIAMDRNELRDWIG” as the sequence, how does the “soluble on expression in E. coli” value read?
**A.** not soluble

**Q.** With “MGSDKIHHHHHHMAHVNTNGIQIEYEVFGKRTNPTIVLIAGNGAQLNFWESDFCEMLAQHNLQVIRFDNRDAGLSTKFDAAGIPDMSKIYQAAQEGKPIKTAYTLEDMADDVAGLLDALEIKKAHICGASMGGMIAQVFAYRHPLRICSLISIMSSTGNPNNPKISQETLEIVTATPPNQRGAYIEYTVHMWKKLWSKGFPFEEERAIRYTEESYDRCYYPQGAVRQNAALVANGDRRKYLSLLRVPTLVIHGTADPLIPVEAGKDTARTIPNAKLLLIEGMGHDMPKGTWKCIVEAIVSLVRDTSHSCWR” as the sequence, how does the “soluble on expression in E. coli” value read?
**A.** not soluble

**Q.** With “MAKENPFTPFSDWTKHWQQFFQNDFWGSIQPLLPSSNKPSSGMNIYKKDNELLVVISLPGLEKIEDAEVYVSYKTLEVKATINLNFKGFELVEEGLFQGQFQKTIPLPFAVKEDRIEATYHNGLLFIHLHRLIPDEPKKKIVIKKSE” as the sequence, how does the “soluble on expression in E. coli” value read?
**A.** not soluble

**Q.** With “MSLDVQSDIVAYDAPKKDLYEIGEMPPLGHVPKEMYAWAIRRERHGEPDQAMQIEVVETPSIDSHEVLVLVMAAGVNYNGIWAGLGVPVSPFDGHKQPYHIAGSDASGIVWAVGDKVKRWKVGDEVVIHCNQDDGDDEECNGGDPMFSPTQRIWGYETPDGSFAQFTRVQAQQLMKRPKHLTWEEAACYTLTLATAYRMLFGHKPHDLKPGQNVLVWGASGGLGSYAIQLINTAGANAIGVISEEDKRDFVMGLGAKGVINRKDFKCWGQLPKVNSPEYNEWLKEARKFGKAIWDITGKGINVDMVFEHPGEATFPVSSLVVKKGGMVVICAGTTGFNCTFDVRYMWMHQKRLQGSHFANLKQASAANQLMIERRLDPCMSEVFPWAEIPAAHTKMYRNQHKPGNMAVLVQAPRTGLRTFADVLEAGRKEGHHHHHH” as the sequence, how does the “soluble on expression in E. coli” value read?
**A.** soluble

**Q.** Which “soluble on expression in E. coli” value does the source give for “MATRRRIGVAAIQKKQETANKFAAKGDQMAGEQLVQFSQQLEQLSAGLEMFAQRHRDEIKKNSQFRRHFQEMCASVGVDPLASSKGFWAKALGFGDFYYELGIQIVEICLSTTHINGGIMTVEEIRNRLMRTRSRTRKDTISTDDILRAVDKLKVLGNGFELVPLGGGRFLVQSVPGELSMDHSRVLQLAEDAAYVTKELIIDKLRWDEARASSALEHLVKEGLAWTDEQASDTTQYWFPSLFLQQYCHSSSSTSVSESLHSMSFNNYQ” here?
**A.** not soluble

**Q.** For “MTIAKDYRTIYRNQIKKQIRLNQEHLQSLTHLGSQINFEVDPPKLPDPDPARKVFFFDIDNTLYRKSTKVQLLMQQSLSNFFKYELGFDDDEAERLIESYYQEYGLSVKGLIKNKQIDDVLQYNTFIDDSLPLQDYLKPDWKLRELLINLKKKKLGKFDKLWLFTNSYKNHAIRCVKILGIADLFDGITYCHYDRPIEEEFICKPDPKFFETAKLQSGLSSFANAWFIDDNESNVRSALSMGMGHVIHLIEDYQYESENIVTKDHKNKQQFSILKDILEIPLIMDVEVYRPSSIAIKEMEELEEEGEAVNWSNQQINVQSS”, which “soluble on expression in E. coli” value is on record?
**A.** soluble

**Q.** For “MSLNQQKKQAPVELKVGQTFPLTIKRLGINGEGVGYFKKKVVFVPGALPGEEVVVQATKVQPKFSEGRIKKIRKASEHRVAPPCPVYEQCGGCQLQHLAYSQQLREKRDIVIQSLERHTKFKVENMEIKETIGMDNPWNYRNKSQFQIGRSQSGSIIAGLYGLDSHDIVPIKDCIVQHPATNKTTGIVRRILEDFNVSVYNERKRKGDVRTIVTRVGFETGEVQVVLVTAKETLPHKEEIVKAIQKRLPEVKSIIQNVNGAKTSVIFGEKTKQLAGKTVIQEVLGDVSFELSARAFFQLNPEQTVKLYDEVKKAAQLTGKEKVVDAYCGVGTIGMWVADGAKEVRGMDVIKESIDDAKKNAKKHGMANATYVTGTAEHWLPKWTKEGFRPDVVIVDPPRTGCDSTFLDTIKKVKPKRFVYVSCNPSTLAKDLQTLSKDYRVDYIQPVDMFPQTAHVEAVARLVLKSSNEGHHHHHH”, which “soluble on expression in E. coli” value is on record?
**A.** not soluble

**Q.** Which “soluble on expression in E. coli” value does the source give for “MSDNLSARWHRILDMTNRETSDDVVIARSSFDDFSQSTPWRKFEISCGNRSFFVNPGWLAELSPYFADELYVRKPNVQRYVIDQATPDEVLEFLRCITFCPMRKPLTVKNVSLVLTFANRFEMRPVQARCENFIAQNATSLSRDKTKLFQVTCAMSQCDPNSSTMSVLVDKLAGIKDDELSRLHFAEMPGDVVAEVYAQKIQRTKDKKAQRQAGASDETAAGCCFMQWASSLFNRRRQRNQADQSILPPSGDQQHHRSELHA” here?
**A.** not soluble
